From patent US20250281573A1 (GENEROATH, published 2025)

Biological target: T1, TRAF2 (UniProt Q12933 1-501, limits assumed)
T1 sequence (looked up): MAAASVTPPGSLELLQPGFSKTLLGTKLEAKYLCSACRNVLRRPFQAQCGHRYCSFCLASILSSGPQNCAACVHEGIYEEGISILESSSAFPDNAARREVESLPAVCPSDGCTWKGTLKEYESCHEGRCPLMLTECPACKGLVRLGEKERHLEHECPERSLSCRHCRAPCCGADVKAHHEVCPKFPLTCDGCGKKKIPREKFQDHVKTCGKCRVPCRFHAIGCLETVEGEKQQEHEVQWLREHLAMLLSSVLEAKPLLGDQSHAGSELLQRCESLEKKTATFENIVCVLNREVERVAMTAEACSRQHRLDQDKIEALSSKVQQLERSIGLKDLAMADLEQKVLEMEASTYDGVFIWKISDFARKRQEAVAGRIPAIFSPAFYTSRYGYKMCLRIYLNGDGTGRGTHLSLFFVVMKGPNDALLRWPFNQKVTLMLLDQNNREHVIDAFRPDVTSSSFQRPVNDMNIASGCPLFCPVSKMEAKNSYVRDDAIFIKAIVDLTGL
Assay: TRAF2 immunoprecipitation from transfected HEK293 cells, anti-Myc immunoblot (FIG. 9A)
Method: To understand how DX2 compromises the apoptotic activity of TNF-a signaling, we evaluated the ability of DX2 to compete with AIMP2 for the interaction with TRAF2 and to affect NF-kB-dependent transcriptional activity. For the co-immunoprecipitation assay, HEK293 cells were transfected with 0, 1 or 2 μg of Myc-tagged DX2 or AIMP2 expression plasmid (FIG. 9A). The expression of endogenous (Endo) and exogenous (Exo) AIMP2 and DX2 was confirmed by immunoblotting of whole cell lysates (WCL) with anti-AIMP2 antibody. TRAF2 was immunoprecipitated with its specific antibody and AIMP2 or DX2 bound to TRAF2 were detected with anti-Myc antibody.

B1: Myc-tagged DX2 (other)
chain: MPMYQVKPYHGGGAPLRVELPTCMYRLPNVHGRSYGPAPGAGHVQDYGALKDIVINANPASPPLSLLVLHRLLCEHFRVLSTVHTHSSVKSVPENLLKCFGEQNKKQPRQDYQLGFTLIWKNVPKTQMKFSIQTMCPIEGEGNIARFLFSLFGQKHNAVNATLIDSWVDIAIFQLKEGSSKEKAAVFRSMNSALGKSPWLAGNELTVADVVLWSVLQQIGGCSVTVPANVQRWMRSCENLAPFNTALKLLK
notes: also called Myc-DX2; not shown: Myc tag
B1: binds.
